The source of these data is PMC2814163 (Biochemistry, 2010).

First the molecules themselves.
B2: Dom1-3His (extracytoplasmic domains 1-3 of the bovine CI-MPR, residues 1-432, C-terminal His6) (domain or fragment, UniProt P08169 45-476, looked up)
chain: AAGTQGAEFPELCSYTWEAVDTKNNMLYKINICGNMGVAQCGPSSAVCMHDLKTDSFHSVGDSLLKTASRSLLEFNTTVNCKQQNHKIQSSITFLCGKTLGTPEFVTATDCVHYFEWRTTAACKKNIFKANKEVPCYAFDRELKKHDLNPLIKTSGAYLVDDSDPDTSLFINVCRDIEVLRASSPQVRVCPTGAAACLVRGDRAFDVGRPQEGLKLVSNDRLVLSYVKEGAGQPDFCDGHSPAVTITFVCPSERREGTIPKLTAKSNCRFEIEWVTEYACHRDYLESRSCSLSSAQHDVAVDLQPLSRVEASDSLFYTSEADEYTYYLSICGGSQAPICNKKDAAVCQVKKADSTQVKVAGRPQNLTLRYSDGDLTLIYFGGEECSSGFQRMSVINFECNQTAGNNGRGAPVFTGEVDCTYFFTWDTKYACV

Holding throughout (test): SPR
(In general: Surface plasmon resonance follows binding to a sensor surface in real time, without labels.)

Assay [1] deals with B2.
The next assay has as its target human prothrombin (human, plasma-purified zymogen; gamma-carboxyglutamate in Gla domain, N-glycosylated, disulfides (by convention, not given)).
Assay [2] concerns the target T1, human β-glucuronidase (human, UniProt P08236 23-651, mannose 6-phosphate on its glycans (Man-6-P-containing lysosomal enzyme; nonphosphorylated enzyme removed)).
T1 sequence (looked up): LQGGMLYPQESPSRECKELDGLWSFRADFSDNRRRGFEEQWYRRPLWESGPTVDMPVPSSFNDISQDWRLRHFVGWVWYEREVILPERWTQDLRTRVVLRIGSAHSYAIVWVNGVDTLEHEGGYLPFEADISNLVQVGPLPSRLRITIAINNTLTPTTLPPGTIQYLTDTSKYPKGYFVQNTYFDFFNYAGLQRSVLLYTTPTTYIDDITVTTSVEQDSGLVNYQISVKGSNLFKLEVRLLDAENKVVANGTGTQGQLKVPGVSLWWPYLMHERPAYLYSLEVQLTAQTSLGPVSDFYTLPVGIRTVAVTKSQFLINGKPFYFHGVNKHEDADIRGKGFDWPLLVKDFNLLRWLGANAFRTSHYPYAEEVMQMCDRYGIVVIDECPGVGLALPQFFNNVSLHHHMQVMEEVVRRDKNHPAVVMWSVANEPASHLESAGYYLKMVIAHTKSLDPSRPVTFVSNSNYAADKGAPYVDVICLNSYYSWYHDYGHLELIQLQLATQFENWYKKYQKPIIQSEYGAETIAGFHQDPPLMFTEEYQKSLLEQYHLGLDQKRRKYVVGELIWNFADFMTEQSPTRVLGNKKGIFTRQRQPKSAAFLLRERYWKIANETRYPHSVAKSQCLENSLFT

Assay [3] concerns the target T1, human β-glucuronidase. The source holds these as a separate data set.

In general, Kd refers to the constant that tells how readily two partners part at equilibrium. A higher Kd goes with weaker binding.

Like-named read-outs stand apart in the source and are kept apart here.

B1: bovine prothrombin (natural protein)
chain: not shown
modifications: plasma-purified zymogen; gamma-carboxyglutamate in Gla domain, N-glycosylated, disulfides (by convention, not given)
In turn, B1 had a Kd in assay [1] above 2500 nM.
On to B2, for which the Kd with human prothrombin was above 2500 nM; with human β-glucuronidase [2] it was 10 ± 2 nM.

B3: Dom1-3HisK215A (domain or fragment, bovine, UniProt P08169 45-476, looked up)
chain: AAGTQGAEFPELCSYTWEAVDTKNNMLYKINICGNMGVAQCGPSSAVCMHDLKTDSFHSVGDSLLKTASRSLLEFNTTVNCKQQNHKIQSSITFLCGKTLGTPEFVTATDCVHYFEWRTTAACKKNIFKANKEVPCYAFDRELKKHDLNPLIKTSGAYLVDDSDPDTSLFINVCRDIEVLRASSPQVRVCPTGAAACLVRGDRAFDVGRPQEGLALVSNDRLVLSYVKEGAGQPDFCDGHSPAVTITFVCPSERREGTIPKLTAKSNCRFEIEWVTEYACHRDYLESRSCSLSSAQHDVAVDLQPLSRVEASDSLFYTSEADEYTYYLSICGGSQAPICNKKDAAVCQVKKADSTQVKVAGRPQNLTLRYSDGDLTLIYFGGEECSSGFQRMSVINFECNQTAGNNGRGAPVFTGEVDCTYFFTWDTKYACV
The molecule B3 returned a dissociation constant (Kd) with human β-glucuronidase [3] of 18 ± 2 nM.

B4: Dom1-3HisK82A (domain or fragment, bovine, UniProt P08169 45-476, looked up)
chain: AAGTQGAEFPELCSYTWEAVDTKNNMLYKINICGNMGVAQCGPSSAVCMHDLKTDSFHSVGDSLLKTASRSLLEFNTTVNCAQQNHKIQSSITFLCGKTLGTPEFVTATDCVHYFEWRTTAACKKNIFKANKEVPCYAFDRELKKHDLNPLIKTSGAYLVDDSDPDTSLFINVCRDIEVLRASSPQVRVCPTGAAACLVRGDRAFDVGRPQEGLKLVSNDRLVLSYVKEGAGQPDFCDGHSPAVTITFVCPSERREGTIPKLTAKSNCRFEIEWVTEYACHRDYLESRSCSLSSAQHDVAVDLQPLSRVEASDSLFYTSEADEYTYYLSICGGSQAPICNKKDAAVCQVKKADSTQVKVAGRPQNLTLRYSDGDLTLIYFGGEECSSGFQRMSVINFECNQTAGNNGRGAPVFTGEVDCTYFFTWDTKYACV
With B4, the dissociation constant Kd with human β-glucuronidase [3] is 17 ± 2 nM.

B5: Dom1-3HisK23A (domain or fragment, bovine, UniProt P08169 45-476, looked up)
chain: AAGTQGAEFPELCSYTWEAVDTANNMLYKINICGNMGVAQCGPSSAVCMHDLKTDSFHSVGDSLLKTASRSLLEFNTTVNCKQQNHKIQSSITFLCGKTLGTPEFVTATDCVHYFEWRTTAACKKNIFKANKEVPCYAFDRELKKHDLNPLIKTSGAYLVDDSDPDTSLFINVCRDIEVLRASSPQVRVCPTGAAACLVRGDRAFDVGRPQEGLKLVSNDRLVLSYVKEGAGQPDFCDGHSPAVTITFVCPSERREGTIPKLTAKSNCRFEIEWVTEYACHRDYLESRSCSLSSAQHDVAVDLQPLSRVEASDSLFYTSEADEYTYYLSICGGSQAPICNKKDAAVCQVKKADSTQVKVAGRPQNLTLRYSDGDLTLIYFGGEECSSGFQRMSVINFECNQTAGNNGRGAPVFTGEVDCTYFFTWDTKYACV
In the assay with human β-glucuronidase [3], B5 had a Kd of 14 ± 1 nM.

B6: Dom1-3HisK125A (domain or fragment, bovine, UniProt P08169 45-476, looked up)
chain: AAGTQGAEFPELCSYTWEAVDTKNNMLYKINICGNMGVAQCGPSSAVCMHDLKTDSFHSVGDSLLKTASRSLLEFNTTVNCKQQNHKIQSSITFLCGKTLGTPEFVTATDCVHYFEWRTTAACKANIFKANKEVPCYAFDRELKKHDLNPLIKTSGAYLVDDSDPDTSLFINVCRDIEVLRASSPQVRVCPTGAAACLVRGDRAFDVGRPQEGLKLVSNDRLVLSYVKEGAGQPDFCDGHSPAVTITFVCPSERREGTIPKLTAKSNCRFEIEWVTEYACHRDYLESRSCSLSSAQHDVAVDLQPLSRVEASDSLFYTSEADEYTYYLSICGGSQAPICNKKDAAVCQVKKADSTQVKVAGRPQNLTLRYSDGDLTLIYFGGEECSSGFQRMSVINFECNQTAGNNGRGAPVFTGEVDCTYFFTWDTKYACV
Turning to B6, binding with human β-glucuronidase [3] was characterised by a dissociation constant (Kd) of 26 ± 2 nM. Against the preceding molecule, the Kd is about 1.9-fold higher.

B7: Dom1-3HisK53A (domain or fragment, bovine, UniProt P08169 45-476, looked up)
chain: AAGTQGAEFPELCSYTWEAVDTKNNMLYKINICGNMGVAQCGPSSAVCMHDLATDSFHSVGDSLLKTASRSLLEFNTTVNCKQQNHKIQSSITFLCGKTLGTPEFVTATDCVHYFEWRTTAACKKNIFKANKEVPCYAFDRELKKHDLNPLIKTSGAYLVDDSDPDTSLFINVCRDIEVLRASSPQVRVCPTGAAACLVRGDRAFDVGRPQEGLKLVSNDRLVLSYVKEGAGQPDFCDGHSPAVTITFVCPSERREGTIPKLTAKSNCRFEIEWVTEYACHRDYLESRSCSLSSAQHDVAVDLQPLSRVEASDSLFYTSEADEYTYYLSICGGSQAPICNKKDAAVCQVKKADSTQVKVAGRPQNLTLRYSDGDLTLIYFGGEECSSGFQRMSVINFECNQTAGNNGRGAPVFTGEVDCTYFFTWDTKYACV
With B7, the dissociation constant Kd in the assay with human β-glucuronidase [3] amounted to 17 ± 2 nM.

B8: Dom1-3HisK98A (domain or fragment, bovine, UniProt P08169 45-476, looked up)
chain: AAGTQGAEFPELCSYTWEAVDTKNNMLYKINICGNMGVAQCGPSSAVCMHDLKTDSFHSVGDSLLKTASRSLLEFNTTVNCKQQNHKIQSSITFLCGATLGTPEFVTATDCVHYFEWRTTAACKKNIFKANKEVPCYAFDRELKKHDLNPLIKTSGAYLVDDSDPDTSLFINVCRDIEVLRASSPQVRVCPTGAAACLVRGDRAFDVGRPQEGLKLVSNDRLVLSYVKEGAGQPDFCDGHSPAVTITFVCPSERREGTIPKLTAKSNCRFEIEWVTEYACHRDYLESRSCSLSSAQHDVAVDLQPLSRVEASDSLFYTSEADEYTYYLSICGGSQAPICNKKDAAVCQVKKADSTQVKVAGRPQNLTLRYSDGDLTLIYFGGEECSSGFQRMSVINFECNQTAGNNGRGAPVFTGEVDCTYFFTWDTKYACV
Consider B8, for which the dissociation constant (Kd) with human β-glucuronidase [3] was 17 ± 1 nM.

B9: Dom1-3HisR118A (domain or fragment, bovine, UniProt P08169 45-476, looked up)
chain: AAGTQGAEFPELCSYTWEAVDTKNNMLYKINICGNMGVAQCGPSSAVCMHDLKTDSFHSVGDSLLKTASRSLLEFNTTVNCKQQNHKIQSSITFLCGKTLGTPEFVTATDCVHYFEWATTAACKKNIFKANKEVPCYAFDRELKKHDLNPLIKTSGAYLVDDSDPDTSLFINVCRDIEVLRASSPQVRVCPTGAAACLVRGDRAFDVGRPQEGLKLVSNDRLVLSYVKEGAGQPDFCDGHSPAVTITFVCPSERREGTIPKLTAKSNCRFEIEWVTEYACHRDYLESRSCSLSSAQHDVAVDLQPLSRVEASDSLFYTSEADEYTYYLSICGGSQAPICNKKDAAVCQVKKADSTQVKVAGRPQNLTLRYSDGDLTLIYFGGEECSSGFQRMSVINFECNQTAGNNGRGAPVFTGEVDCTYFFTWDTKYACV
Take B9: the dissociation constant (Kd) in the assay with human β-glucuronidase [3] stood at 12 ± 1 nM. This Kd and that of the molecule before are within 1.5-fold of each other.

B10: Dom1-3HisK132A (domain or fragment, bovine, UniProt P08169 45-476, looked up)
chain: AAGTQGAEFPELCSYTWEAVDTKNNMLYKINICGNMGVAQCGPSSAVCMHDLKTDSFHSVGDSLLKTASRSLLEFNTTVNCKQQNHKIQSSITFLCGKTLGTPEFVTATDCVHYFEWRTTAACKKNIFKANAEVPCYAFDRELKKHDLNPLIKTSGAYLVDDSDPDTSLFINVCRDIEVLRASSPQVRVCPTGAAACLVRGDRAFDVGRPQEGLKLVSNDRLVLSYVKEGAGQPDFCDGHSPAVTITFVCPSERREGTIPKLTAKSNCRFEIEWVTEYACHRDYLESRSCSLSSAQHDVAVDLQPLSRVEASDSLFYTSEADEYTYYLSICGGSQAPICNKKDAAVCQVKKADSTQVKVAGRPQNLTLRYSDGDLTLIYFGGEECSSGFQRMSVINFECNQTAGNNGRGAPVFTGEVDCTYFFTWDTKYACV
For B10, the Kd with human β-glucuronidase [3] was 35 ± 4 nM. This Kd is about 2.9-fold higher than that of the molecule before.
